B1: EgCAD2 [-203/-129] mutated MYBa (dsDNA)
DNA 1: TGGGAATGGCTAAAAAGCAAGTCTTGACCCTTAACCCACCCCACTGGTTCAGTCGACGCACCTCTGGTTAGGTATTGCTTGCTGAG
DNA 2: CTCAGCAAGCAATACCTAACCAGAGGTGCGTCGACTGAACCAGTGGGGTGGGTTAAGGGTCAAGACTTGCTTTTTAGCCATTCCCA
B2: EgCAD2 [-203/-129] mutated MYBb (dsDNA)
DNA 1: TGGGAATGGCTAAAAAGCAAGTCTTGACCCTTAACCCACCCCACTGGTTCACCTACCGCACCTCTGAGATCTTATTGCTTGCTGAG
DNA 2: CTCAGCAAGCAATAAGATCTCAGAGGTGCGGTAGGTGAACCAGTGGGGTGGGTTAAGGGTCAAGACTTGCTTTTTAGCCATTCCCA
B3: EgCAD2 [-203/-129] mutated MYBa + MYBb (dsDNA)
DNA 1: TGGGAATGGCTAAAAAGCAAGTCTTGACCCTTAACCCACCCCACTGGTTCAGTCGACGCACCTCTGAGATCTTATTGCTTGCTGAG
DNA 2: CTCAGCAAGCAATAAGATCTCAGAGGTGCGTCGACTGAACCAGTGGGGTGGGTTAAGGGTCAAGACTTGCTTTTTAGCCATTCCCA
B4: EgCCR [-119/-70] mutated MYB (dsDNA)
DNA 1: CCTTATAGGGGAGCGGGTCATTTCATGCGGTTCTAGAGTCTTGGTAAACATTGTC
DNA 2: GACAATGTTTACCAAGACTCTAGAACCGCATGAAATGACCCGCTCCCCTATAAGG

These binders were tested against EgMYB2 (R2R3 MYB factor) (UniProt Q70KC5 1-321) (assay: EMSA; EMSA: 25 mM Tris-HCl pH 8, 250 mM NaCl, 10% glycerol, 7 mM beta-mercaptoethanol, 2 ug poly(dIdC), 25 ul, 30 min, room temperature; 0.125 ug EgMYB2; 4.8% PAGE in 0.5x TBE, 2.5% glycerol). Conditions: protein: recombinant; tags: GST (N-terminal, pGEX-5X-1); label: 32P; blunt.
EgMYB2 (R2R3 MYB factor), sequence (Q70KC5 entry or part of it): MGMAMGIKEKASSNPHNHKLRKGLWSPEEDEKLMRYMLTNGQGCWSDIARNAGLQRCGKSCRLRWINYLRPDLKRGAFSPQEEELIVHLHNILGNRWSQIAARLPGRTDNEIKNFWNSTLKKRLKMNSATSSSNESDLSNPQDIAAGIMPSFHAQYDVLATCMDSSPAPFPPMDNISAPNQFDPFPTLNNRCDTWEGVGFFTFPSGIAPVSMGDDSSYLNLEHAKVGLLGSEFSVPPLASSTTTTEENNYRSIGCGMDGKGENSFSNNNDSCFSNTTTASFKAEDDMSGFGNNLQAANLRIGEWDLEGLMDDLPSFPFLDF

Binder	binding result
B1	no binding
B2	no binding
B3	no binding
B4	no binding
